This is an account of results in patent US9958461B2, “Detection of protein to protein interactions” (THE GOVERNING COUNCIL OF THE UNIVERSITY OF TORONTO, priority 2013, dated 2018).

B1: SH3GL3 (protein, UniProt Q99963 1-347, looked up)
Endophilin-A3: MSVAGLKKQFHKASQLFSEKISGAEGTKLDDEFLDMERKIDVTNKVVAEILSKTTEYLQPNPAYRAKLGMLNTVSKIRGQVKTTGYPQTEGLLGDCMLKYGKELGEDSTFGNALIEVGESMKLMAEVKDSLDINVKQTFIDPLQLLQDKDLKEIGHHLKKLEGRRLDYDYKKKRVGKIPDEEVRQAVEKFEESKELAERSMFNFLENDVEQVSQLAVFIEAALDYHRQSTEILQELQSKLQMRISAASSVPRREYKPRPVKRSSSELNGVSTTSVVKTTGSNIPMDQPCCRGLYDFEPENQGELGFKEGDIITLTNQIDENWYEGMIHGESGFFPINYVEVIVPLPQ
B2: GRAP2 (protein, UniProt O75791 1-330, looked up)
GRB2-related adapter protein 2: MEAVAKFDFTASGEDELSFHTGDVLKILSNQEEWFKAELGSQEGYVPKNFIDIQFPKWFHEGLSRHQAENLLMGKEVGFFIIRASQSSPGDFSISVRHEDDVQHFKVMRDNKGNYFLWTEKFPSLNKLVDYYRTNSISRQKQIFLRDRTREDQGHRGNSLDRRSQGGPHLSGAVGEEIRPSMNRKLSDHPPTLPLQQHQHQPQPPQYAPAPQQLQQPPQQRYLQHHHFHQERRGGSLDINDGHCGTGLGSEMNAALMHRRHTDPVQLQAAGRVRWARALYDFEALEDDELGFHSGEVVEVLDSSNPSWWTGRLHNKLGLFPANYVAPMTR
B3: APBB2 (protein, UniProt Q92870 1-758, looked up)
Amyloid beta precursor …: MSEVLPADSGVDTLAVFMASSGTTDVTNRNSPATPPNTLNLRSSHNELLNAEIKHTETKNSTPPKCRKKYALTNIQAAMGLSDPAAQPLLGNGSANIKLVKNGENQLRKAAEQGQQDPNKNLSPTAVINITSEKLEGKEPHPQDSSSCEILPSQPRRTKSFLNYYADLETSARELEQNRGNHHGTAEEKSQPVQGQASTIIGNGDLLLQKPNRPQSSPEDGQVATVSSSPETKKDHPKTGAKTDCALHRIQNLAPSDEESSWTTLSQDSASPSSPDETDIWSDHSFQTDPDLPPGWKRVSDIAGTYYWHIPTGTTQWERPVSIPADLQGSRKGSLSSVTPSPTPENEKQPWSDFAVLNGGKINSDIWKDLHAATVNPDPSLKEFEGATLRYASLKLRNAPHPDDDDSCSINSDPEAKCFAVRSLGWVEMAEEDLAPGKSSVAVNNCIRQLSYCKNDIRDTVGIWGEGKDMYLILENDMLSLVDPMDRSVLHSQPIVSIRVWGVGRDNGRDFAYVARDKDTRILKCHVFRCDTPAKAIATSLHEICSKIMAERKNAKALACSSLQERANVNLDVPLQVDFPTPKTELVQKFHVQYLGMLPVDKPVGMDILNSAIENLMTSSNKEDWLSVNMNVADATVTVISEKNEEEVLVECRVRFLSFMGVGKDVHTFAFIMDTGNQRFECHVFWCEPNAGNVSEAVQAACMLRYQKCLVARPPSQKVRPPPPPADSVTRRVTTNVKRGVLSLIDTLKQKRPVTEMP

For one assay, the target named is T1, EGFR-Wt (Homo sapiens, UniProt P00533).
T1 construct: with the advantage of testing full-length integral membrane proteins; (GGGGS)2 linker-Cub (human ubiquitin aa 35-76)-GAL4(1-147)-mNFkB(364-550) (C); expressed in transfected cells
Description: MaMTH EGFR-interactor screen, lentiviral preys against EGFR-wildtype bait (interaction score). The format is cell-based. The following applies: MaMTH interaction score of prey with EGFR-Wt bait, mean. How it is done:
(§1) After lentivirus harvest, target cells (stable 5×GAL4UAS-luciferase reporter-HEK293T cells) were infected at a multiplicity of infection (MOI) of around 0.3-0.4 to ensure single copy integration per cell. Cells were selected in puromycin for at least 48 h and transfected with either EGFR-wildtype or EGFR-L858R baits in triplicates. 24 h after transfection, cells were lysed and luciferase assays performed. On each set of interaction assays, various negative controls were included. To calculate a MaMTH-interaction scores, negative controls were averaged and the fold-change of luciferase activity compared to the averaged controls was calculated and defined as the interaction score.
(§2) Each set of experiments contains a defined set of negative controls in at least three replicates. Negative controls were chosen as such that there is a range of controls showing high-background luciferase activity (normally cytosolic proteins: Fabp5, Pex19) as well as medium-background luciferase activity (membrane-bound interactors: Pex7, GABBR2). Negative controls were averaged and the fold-change of luciferase activity was calculated. Using this method, we have a stringent cut-off and chose an interaction score >1 to be interacting proteins.
(§3) Our cut-off of 1 is based on fold-change difference in luciferase activity over averaged negative controls. Negative controls include cytosolic preys (which tend to promiscuously bind to many proteins), plasma membrane- and peroxisomal-prey proteins. In general, we chose stringent conditions by testing preys that tend to have high luciferase background with any bait tested, in order to generate high-confidence interaction data. […] Phosphorylated tyrosine residues on the receptor are typically docking sites for downstream cytoplasmic targets and recognized through SH2 or PTB domains^43.
On to B1, for which the EGFR-Wt mean worked out at 3.41.
Consider B2, for which the EGFR-Wt mean turned out to be 1.79.
As for B3, the EGFR-Wt mean was determined as 3.05.

Another assay concerns EGFR-Wt. Described as above. As to conditions: ratio of EGFR-Wt mean to EGFR-L858R mean interaction score. The format is cell-based, human. How it is done: as §1, §2, §3
As for B1, the Wt/L858R came to 1.05.
B2: the Wt/L858R is given as 0.22.
On the same count and under the same terms, for B3 the value was 1.05.

The next assay addresses T2, EGFR-L858R (Homo sapiens, UniProt P00533, L858R).
T2 construct: with the advantage of testing full-length integral membrane proteins; (GGGGS)2 linker-Cub (human ubiquitin aa 35-76)-GAL4(1-147)-mNFkB(364-550) (C); expressed in transfected cells
Nature of the assay: MaMTH EGFR-interactor screen, lentiviral preys against EGFR-L858R bait (interaction score). As to conditions: MaMTH interaction score of prey with EGFR-L858R bait. The format is cell-based. The method, then:
as §1, §2, §3
For the molecule B1, the EGFR-L858R mean is given as 3.26.
The same measure, in the same setting: then B2, with 8.12.
The same measure, in the same setting: for B3 the value was 2.92.
